In patent US20250003951A1 (OXFORD UNIVERSITY INNOVATION, published 2025):

T1: OX628-80 (human)
T1 peptide: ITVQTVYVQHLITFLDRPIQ

T2: OX628-81 (human)
T2 peptide: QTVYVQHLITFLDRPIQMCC

T3: OX747-157 (human)
T3 peptide: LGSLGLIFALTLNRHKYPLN

T4: OX747-158 (human)
T4 peptide: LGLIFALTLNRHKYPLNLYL

T5: OX1149-190 (human)
T5 peptide: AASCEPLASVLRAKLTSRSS

T6: OX289-073 (human)
T6 peptide: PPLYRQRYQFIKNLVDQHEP

T7: OX289-074 (human)
T7 peptide: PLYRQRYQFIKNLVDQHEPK


Key:
Test in all cases: cell-based or functional assay
OX628-80 = molecular target: T1, OX628-80
OX628-81 = molecular target: T2, OX628-81
OX747-157 = molecular target: T3, OX747-157
OX747-158 = molecular target: T4, OX747-158
OX1149-190 = molecular target: T5, OX1149-190
OX289-073 = molecular target: T6, OX289-073
OX289-074 = molecular target: T7, OX289-074

Binder | Clone size (percent repertoire), IFNγ+ sorted T cells after peptide stimulation (OX747-157) | Clone size (percent repertoire), IFNγ+ sorted T cells after peptide stimulation (OX747-158) | Clone size (percent repertoire), IFNγ+ sorted T cells after peptide stimulation (OX1149-190) | other results
OX628 Peptides 80/81 clone 3 TCR (TCR, V domains shown) V domain 1: QKEVEQNSGPLSVPEGAIASLNCTYSDRGSQSFFWYRQYSGKSPELIMSIYSNGDKEDGRFTAQLNKASQYVSLLIRDSQPSDSATYLCAVSAGGTSYGKLTFGQGTILTVHP V domain 2: DTAVSQTPKYLVTQMGNDKSIKCEQNLGHDTMYWYKQDSKKFLKIMFSYNNKELIINETVPNRFSPKSPDKAHLNLHINSLELGDSAVYFCASSQVLRGEQYFGPGTRLTVTE | – | – | – | Clone size (percent repertoire), IFNγ+ sorted T cells after peptide stimulation (OX628-80): 4.2 % of repertoire; Clone size (percent repertoire), IFNγ+ sorted T cells after peptide stimulation (OX628-81): 4.2 % of repertoire
OX747 Peptides 157/158 clone 3 TCR (TCR, V domains shown) V domain 1: QKEVEQNSGPLSVPEGAIASLNCTYSDRGSQSFFWYRQYSGKSPELIMFIYSNGDKEDGRFTAQLNKASQYVSLLIRDSQPSDSATYLCAGRQTSYDKVIFGPGTSLSVIP V domain 2: not shown | 8.7 % of repertoire | 8.7 % of repertoire | – | –
OX1149 Peptide 190 clone 1 TCR (TCR, V domains shown) V domain 1: SQQGEEDPQALSIQEGENATMNCSYKTSINNLQWYRQNSGRGLVHLILIRSNEREKHSGRLRVTLDTSKKSSSLLITASRAADTASYFCATDEAAGNKLTFGGGTRVLVKP V domain 2: EPEVTQTPSHQVTQMGQEVILRCVPISNHLYFYWYRQILGQKVEFLVSFYNNEISEKSEIFDDQFSVERPDGSNFTLKIRSTKLEDSAMYFCASKRESLATGELFFGEGSRLTVLE | – | – | 18.3 % of repertoire | –
OX628 Peptides 80/81 clone 2 TCR (TCR, V domains shown) V domain 1: GQQLNQSPQSMFIQEGEDVSMNCTSSSIFNTWLWYKQDPGEGPVLLIALYKAGELTSNGRLTAQFGITRKDSFLNISASIPSDVGIYFCAGANNNARLMFGDGTQLVVKP V domain 2: SAVISQKPSRDICQRGTSLTIQCQVDSQVTMMFWYRQQPGQSLTLIATANQGSEATYESGFVIDKFPISRPNLTFSTLTVSNMSPEDSSIYLCSVTPGGGVNTEAFFGQGTRLTVVE | – | – | – | Clone size (percent repertoire), IFNγ+ sorted T cells after peptide stimulation (OX628-80): 13.5 % of repertoire; Clone size (percent repertoire), IFNγ+ sorted T cells after peptide stimulation (OX628-81): 13.5 % of repertoire
OX747 Peptides 157/158 clone 2 TCR (TCR, V domains shown) V domain 1: AQKVTQAQTEISVVEKEDVTLDCVYETRDTTYYLFWYKQPPSGELVFLIRRNSFDEQNEISGRYSWNFQKSTSSFNFTITASQVVDSAVYFCALSEATYNTDKLIFGTGTRLQVFP V domain 2: ETGVTQSPTHLIKTRGQQVTLRCSSQSGHNTVSWYQQALGQGPQFIFQYYREEENGRGNFPPRFSGLQFPNYSSELNVNALELDDSALYLCASSSTGTDYGYTFGSGTRLTVVE | 9.8 % of repertoire | 9.8 % of repertoire | – | –
OX1149 Peptide 190 clone 4 TCR (TCR, V domains shown) V domain 1: SQQGEEDPQALSIQEGENATMNCSYKTSINNLQWYRQNSGRGLVHLILIRSNEREKHSGRLRVTLDTSKKSSSLLITASRAADTASYFCATKGGNNRLAFGKGNQVVVIP V domain 2: EPEVTQTPSHQVTQMGQEVILRCVPISNHLYFYWYRQILGQKVEFLVSFYNNEISEKSEIFDDQFSVERPDGSNFTLKIRSTKLEDSAMYFCASSAWTGETGYTFGSGTRLTVVE | – | – | 5.7 % of repertoire | –
OX289 Peptides 73/74 clone 1 TCR (TCR, V domains shown) V domain 1: RGEDVEQSLFLSVREGDSSVINCTYTDSSSTYLYWYKQEPGAGLQLLTYIFSNMDMKQDQRLTVLLNKKDKHLSLRIADTQTGDSAIYFCAESPSDGQKLLFARGTMLKVDL V domain 2: EAQVTQNPRYLITVTGKKLTVTCSQNMNHEYMSWYRQDPGLGLRQIYYSMNVEVTDKGDVPEGYKVSRKEKRNFPLILESPSPNQTSLYFCASSLRQGISPEQFFGPGTRLTVLE | – | – | – | Clone size (percent repertoire), IFNγ+ sorted T cells after peptide stimulation (OX289-073): 32.3 % of repertoire; Clone size (percent repertoire), IFNγ+ sorted T cells after peptide stimulation (OX289-074): 32.3 % of repertoire
OX747 Peptides 157/158 clone 1 TCR (TCR) TCR alpha 1: KNEVEQSPQNLTAQEGEFITINCSYSVGISALHWLQQHPGGGIVSLFMLSSGKKKHGRLIATINIQEKHSSLHITASHPRDSAVYICAVSTGGATNKLIFGTGTLLAVQPNIQNPDPAVYQLRD TCR alpha 2: KNEVEQSPQNLTAQEGEFITINCSYSVGISALHWLQQHPGGGIVSLFMLSSGKKKHGRLIATINIQEKHSSLHITASHPRDSAVYICAVQEGETSGSRLTFGEGTQLTVNPDIQNPDPAVYQLRD TCR beta: NAGVTQTPKFQVLKTGQSMTLQCAQDMNHEYMSWYRQDPGMGLRLIHYSVGAGITDQGEVPNGYNVSRSTTEDFPLRLLSAAPSQTSVYFCASSPGFNGNTIYFGEGSWLTVVEDLNKVFPPEVAVFEPS | 15.5 % of repertoire | 15.5 % of repertoire | – | –
OX628 Peptides 80/81 clone 1 TCR (TCR, V domains shown) V domain 1: GQQLNQSPQSMFIQEGEDVSMNCTSSSIFNTWLWYKQEPGEGPVLLIALYKAGELTSNGRLTAQFGITRKDSFLNISASIPSDVGIYFCAGHQIQGAQKLVFGQGTRLTINP V domain 2: NAGVTQTPKFRILKIGQSMTLQCTQDMNHNYMYWYRQDPGMGLKLIYYSVGAGITDKGEVPNGYNVSRSTTEDFPLRLELAAPSQTSVYFCASSYSGMNTEAFFGQGTRLTVVE | – | – | – | Clone size (percent repertoire), IFNγ+ sorted T cells after peptide stimulation (OX628-80): 55.1 % of repertoire; Clone size (percent repertoire), IFNγ+ sorted T cells after peptide stimulation (OX628-81): 55.1 % of repertoire
OX747 Peptides 157/158 clone 5 TCR (TCR, V domains shown) V domain 1: GQQLNQSPQSMFIQEGEDVSMNCTSSSIFNTWLWYKQDPGEGPVLLIALYKAGELTSNGRLTAQFGITRKDSFLNISASIPSDVGIYFCAGQQKTSGSRLTFGEGTQLTVNP V domain 2: DGGITQSPKYLFRKEGQNVTLSCEQNLNHDAMYWYRQDPGQGLRLIYYSQIVNDFQKGDIAEGYSVSREKKESFPLTVTSAQKNPTAFYLCASSSPRDRVGQPQHFGDGTRLSILE | 7.7 % of repertoire | 7.7 % of repertoire | – | –
OX1149 Peptide 190 clone 3 TCR (TCR, V domains shown) V domain 1: GENVEQHPSTLSVQEGDSAVIKCTYSDSASNYFPWYKQELGKRPQLIIDIRSNVGEKKDQRIAVTLNKTAKHFSLHITETQPEDSAVYFCAARGGSNYKLTFGKGTLLTVNP V domain 2: DAGVIQSPRHEVTEMGQEVTLRCKPISGHDYLFWYRQTMMRGLELLIYFNNNVPIDDSGMPEDRFSAKMPNASFSTLKIQPSEPRDSAVYFCASSTGGEQYFGPGTRLTVTE | – | – | 9 % of repertoire | –
OX1149 Peptide 190 clone 2 TCR (TCR, V domains shown) V domain 1: SQQGEEDPQALSIQEGENATMNCSYKTSINNLQWYRQNSGRGLVHLILIRSNEREKHSGRLRVTLDTSKKSSSLLITASRAADTASYFCAAMYSGGGADGLTFGKGTHLIIQP V domain 2: EPEVTQTPSHQVTQMGQEVILRCVPISNHLYFYWYRQILGQKVEFLVSFYNNEISEKSEIFDDQFSVERPDGSNFTLKIRSTKLEDSAMYFCASSTQGQAYEQYFGPGTRLTVTE | – | – | 17.3 % of repertoire | –
OX1149 Peptide 190 clone 5 TCR (TCR, V domains shown) V domain 1: DQQVKQNSPSLSVQEGRISILNCDYTNSMFDYFLWYKKYPAEGPTFLISISSIKDKNEDGRFTVFLNKSAKHLSLHIVPSQPGDSAVYFCAATRAGGTSYGKLTFGQGTILTVHP V domain 2: SQTIHQWPATLVQPVGSPLSLECTVEGTSNPNLYWYRQAAGRGLQLLFYSVGIGQISSEVPQNLSASRPQDRQFILSSKKLLLSDSGFYLCAWSVLAGVSQYFGPGTRLLVLE | – | – | 4.8 % of repertoire | –
OX747 Peptides 157/158 clone 4 TCR (TCR, V domains shown) V domain 1: AQKVTQAQTEISVVEKEDVTLDCVYETRDTTYYLFWYKQPPSGELVFLIRRNSFDEQNEISGRYSWNFQKSTSSFNFTITASQVVDSAVYFCALSEMNRDDKIIFGKGTRLHILP V domain 2: NAGVMQNPRHLVRRRGQEARLRCSPMKGHSHVYWYRQLPEEGLKFMVYLQKENIIDESGMPKERFSAEFPKEGPSILRIQQVVRGDSAAYFCASSPTGVSGNTIYFGEGSWLTVVE | 7.9 % of repertoire | 7.9 % of repertoire | – | –
OX289 Peptides 73/74 clone 3 TCR (TCR) TCR alpha: AQSVTQLDSQVPVFEEAPVELRCNYSSSVSVYLFWYVQYPNQGLQLLLKYLSGSTLVKGINGFEAEFNKSQTSFHLRKPSVHISDTAEYFCAVSGTGANSKLTFGKGITLSVRPDIQNPDPAVYQLRD TCR beta 1: GAGVSQSPSNKVTEKGKDVELRCDPISGHTALYWYRQSLGQGLEFLIYFQGNSAPDKSGLPSDRFSAERTGGSVSTLTIQRTQQEDSAVYLCASSDPISGRGDEQFFGPGTRLTVLEDLKNVFPPEVAVFEPS TCR beta 2: GAGVSQSPSNKVTEKGKDVELRCDPISGHTALYWYRQSLGQGLEFLIYFQGNSAPDKSGLPSDRFSAERTGGSVSTLTIQRTQQEDSAVYLCASSFGGGAWNEQFFGPGTRLTVLEDLKNVFPPEVAVFEPS | – | – | – | Clone size (percent repertoire), IFNγ+ sorted T cells after peptide stimulation (OX289-073): 8.67 % of repertoire; Clone size (percent repertoire), IFNγ+ sorted T cells after peptide stimulation (OX289-074): 8.67 % of repertoire
OX289 Peptides 73/74 clone 2 TCR (TCR) TCR alpha: ELKVEQNPLFLSMQEGKNYTIYCNYSTTSDRLYWYRQDPGKSLESLFVLLSNGAVKQEGRLMASLDTKARLSTLHITAAVHDLSATYFCAVEETSGSRLTFGEGTQLTVNPDIQNPDPAVYQLRD TCR beta 1: EAQVTQNPRYLITVTGKKLTVTCSQNMNHEYMSWYRQDPGLGLRQIYYSMNVEVTDKGDVPEGYKVSRKEKRNFPLILESPSPNQTSLYFCASSLRQGISPEQFFGPGTRLTVLEDLKNVFPPEVAVFEPS TCR beta 2: EAQVTQNPRYLITVTGKKLTVTCSQNMNHEYMSWYRQDPGLGLRQIYYSMNVEVTDKGDVPEGYKVSRKEKRNFPLILESPSPNQTSLYFCASSERQGITEAFFGQGTRLTVVEDLNKVFPPEVAVFEPS | – | – | – | Clone size (percent repertoire), IFNγ+ sorted T cells after peptide stimulation (OX289-073): 25.6 % of repertoire; Clone size (percent repertoire), IFNγ+ sorted T cells after peptide stimulation (OX289-074): 25.6 % of repertoire
